# In the supplement of paper PMC9112550, “Optimization of the antimicrobial peptide Bac7 by deep mutational scanning” (BMC Biology, 2022):
# Tested on: Escherichia coli TOP10
# Test: shrunken log2 fold change of peptide-encoding DNA abundance (4.5 h post-induction vs induction); higher = less antimicrobial activity (less host growth inhibition)
# Settings: time post-induction: 4.5 h; library: site-saturation at positions 5, 18, 19, 20
# 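Also: peptides expressed intracellularly from a pBAD plasmid library in pooled LB shake-flask culture, induced with 0.3% L-arabinose, DNA abundance read by NGS, three biological replicates, DESeq2 with apeglm shrinkage.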
row,Sequence,shrunken log2 fold change
1,RRIRCRPPRLPRPRPRPEQQPRP,-0.0118
2,RRIRARPPRLPRPRPRPGCHPRP,0.265
3,RRIRLRPPRLPRPRPRPMYMPRP,-0.295
4,RRIRPRPPRLPRPRPRPSLEPRP,0.0508
5,RRIRCRPPRLPRPRPRPFLAPRP,0.0788
6,RRIRERPPRLPRPRPRPNLTPRP,-0.171
7,RRIRERPPRLPRPRPRPDNSPRP,-0.981
8,RRIRQRPPRLPRPRPRPCRQPRP,0.0342
9,RRIRPRPPRLPRPRPRPEEYPRP,0.00398
10,RRIRKRPPRLPRPRPRPDAAPRP,0.976
11,RRIRQRPPRLPRPRPRPLDSPRP,-0.00448
12,RRIRTRPPRLPRPRPRPVMYPRP,0.0131
13,RRIRNRPPRLPRPRPRPSIHPRP,-0.185
14,RRIRGRPPRLPRPRPRPLKGPRP,-0.117
15,RRIRIRPPRLPRPRPRPLPRPRP,0.2
16,RRIRLRPPRLPRPRPRPRAFPRP,0.25
17,RRIRERPPRLPRPRPRPEEMPRP,0.0169
18,RRIRDRPPRLPRPRPRPDPMPRP,0.0611
19,RRIRQRPPRLPRPRPRPDQAPRP,0.0424
20,RRIRERPPRLPRPRPRPSELPRP,0.0285
21,RRIRQRPPRLPRPRPRPNEMPRP,0.105
22,RRIRSRPPRLPRPRPRPYIWPRP,-0.108

row,Sequence,shrunken log2 fold change
1,RRIRIRPPRLPRPRPRPVFSPRP,-0.626
2,RRIRLRPPRLPRPRPRPAPMPRP,0.118
3,RRIRMRPPRLPRPRPRPMCNPRP,-0.00494
4,RRIRPRPPRLPRPRPRPTCVPRP,-0.136
5,RRIRQRPPRLPRPRPRPNNYPRP,-0.53
6,RRIRMRPPRLPRPRPRPGYMPRP,0.0502
7,RRIRSRPPRLPRPRPRPMFHPRP,-0.438
8,RRIRNRPPRLPRPRPRPTEHPRP,0.141
9,RRIRSRPPRLPRPRPRPRYFPRP,-0.0823
10,RRIRLRPPRLPRPRPRPAYRPRP,-0.0396
11,RRIRIRPPRLPRPRPRPTKHPRP,-0.528
12,RRIRPRPPRLPRPRPRPHTRPRP,0.171
13,RRIRKRPPRLPRPRPRPQWIPRP,0.00082
14,RRIRGRPPRLPRPRPRPFRDPRP,0.0814
15,RRIRVRPPRLPRPRPRPHPCPRP,0.106
16,RRIRDRPPRLPRPRPRPRKRPRP,0.382
17,RRIRIRPPRLPRPRPRPYYRPRP,-0.105
18,RRIRNRPPRLPRPRPRPAPPPRP,0.584
19,RRIRPRPPRLPRPRPRPHLAPRP,0.0568
20,RRIRTRPPRLPRPRPRPYTRPRP,-0.0177
21,RRIRSRPPRLPRPRPRPDSCPRP,-0.0234
22,RRIRIRPPRLPRPRPRPFAYPRP,-0.396

row,Sequence,shrunken log2 fold change
1,RRIRNRPPRLPRPRPRPIKKPRP,0.149
2,RRIRYRPPRLPRPRPRPQKAPRP,-0.0304
3,RRIRIRPPRLPRPRPRPAMDPRP,-0.218
4,RRIRWRPPRLPRPRPRPDQMPRP,0.128
5,RRIRGRPPRLPRPRPRPQTAPRP,0.205
6,RRIRVRPPRLPRPRPRPVYMPRP,-0.184
7,RRIRSRPPRLPRPRPRPYVRPRP,-0.0846
8,RRIRTRPPRLPRPRPRPITQPRP,-0.168
9,RRIRHRPPRLPRPRPRPDHLPRP,-0.0237
10,RRIRERPPRLPRPRPRPPLTPRP,-0.0766
11,RRIRYRPPRLPRPRPRPDSCPRP,0.0675
12,RRIRIRPPRLPRPRPRPPHVPRP,-0.265
13,RRIRIRPPRLPRPRPRPMLKPRP,-0.282
14,RRIRTRPPRLPRPRPRPHRCPRP,-0.0268
15,RRIRYRPPRLPRPRPRPACSPRP,-0.447
16,RRIRGRPPRLPRPRPRPAYGPRP,-0.0354
17,RRIRVRPPRLPRPRPRPTLYPRP,-0.155
18,RRIRIRPPRLPRPRPRPRTFPRP,-0.143
19,RRIRFRPPRLPRPRPRPMEEPRP,0.279
20,RRIRLRPPRLPRPRPRPEKDPRP,0.191
21,RRIRHRPPRLPRPRPRPEPFPRP,0.0638
22,RRIRHRPPRLPRPRPRPVPQPRP,-0.0725

row,Sequence,shrunken log2 fold change
1,RRIRIRPPRLPRPRPRPCNIPRP,-0.106
2,RRIRIRPPRLPRPRPRPMMIPRP,-0.0366
3,RRIRMRPPRLPRPRPRPNRFPRP,-0.0257
4,RRIRSRPPRLPRPRPRPLYHPRP,-0.599
5,RRIRCRPPRLPRPRPRPFSSPRP,-0.24
6,RRIRCRPPRLPRPRPRPLYRPRP,-1.14
7,RRIRNRPPRLPRPRPRPGERPRP,-0.0647
8,RRIRLRPPRLPRPRPRPHEPPRP,-0.0213
9,RRIRNRPPRLPRPRPRPKIGPRP,-0.0153
10,RRIRIRPPRLPRPRPRPAACPRP,0.156
11,RRIRFRPPRLPRPRPRPEQFPRP,-0.115
12,RRIRGRPPRLPRPRPRPCYTPRP,0.498
13,RRIRTRPPRLPRPRPRPNNPPRP,-0.684
14,RRIRWRPPRLPRPRPRPLNDPRP,-0.281
15,RRIRLRPPRLPRPRPRPCFQPRP,-0.512
16,RRIRHRPPRLPRPRPRPHTQPRP,0.0972
17,RRIRSRPPRLPRPRPRPWHVPRP,-0.0882
18,RRIRYRPPRLPRPRPRPQNPPRP,-0.483
19,RRIRWRPPRLPRPRPRPQKQPRP,0.184
20,RRIRLRPPRLPRPRPRPWHHPRP,-0.0279
21,RRIRIRPPRLPRPRPRPMKTPRP,-0.057
22,RRIRGRPPRLPRPRPRPGIAPRP,0.864

row,Sequence,shrunken log2 fold change
1,RRIRHRPPRLPRPRPRPTMWPRP,0.22
2,RRIRIRPPRLPRPRPRPGFCPRP,0.135
3,RRIRTRPPRLPRPRPRPWLVPRP,-0.0639
4,RRIRQRPPRLPRPRPRPEICPRP,0.0414
5,RRIRARPPRLPRPRPRPQPGPRP,0.563
6,RRIRCRPPRLPRPRPRPKPVPRP,0.179
7,RRIRIRPPRLPRPRPRPFGDPRP,-0.0112
8,RRIRMRPPRLPRPRPRPQHKPRP,-0.0523
9,RRIRQRPPRLPRPRPRPQCKPRP,-0.102
10,RRIRHRPPRLPRPRPRPSRPPRP,0.323
11,RRIRNRPPRLPRPRPRPRGYPRP,-0.846
12,RRIRTRPPRLPRPRPRPHTQPRP,-0.0664
13,RRIRFRPPRLPRPRPRPIMSPRP,-0.0555
14,RRIRKRPPRLPRPRPRPTPIPRP,0.639
15,RRIRGRPPRLPRPRPRPDAGPRP,0.601
16,RRIRSRPPRLPRPRPRPCWTPRP,-0.306
17,RRIRQRPPRLPRPRPRPAFYPRP,-0.0263
18,RRIRVRPPRLPRPRPRPSMLPRP,-0.395
19,RRIRARPPRLPRPRPRPVMVPRP,0.0116
20,RRIRHRPPRLPRPRPRPLFVPRP,-0.471
21,RRIRNRPPRLPRPRPRPESFPRP,-0.0337
